Laboratory results taken from the RNAGym collection of RNA variant scans (doi:10.7554/elife.80360).

B1: Hairpin Ribozyme (parent)
chain: GUCCUCUUUCACGUGCGCGUGAAAGAGAGAAGUGAACCAGAGAAACACACGUUGUGGUAUAUUACCUGGUA

Variants of: B1
Assay: self-cleavage, relative activity (ratio to wild type); higher = more cleavage; co-transcriptional

| Variant | self-cleavage |
| --- | --- |
| GUUCUCUUUCACGUGCGCGUGAAAGAGAGAAGUGAACCAGAGAAACACACGUUGUGGUAUAUUACCAGGUA [C3U U67A] | 0.0952 |
| GUCCUCUUUCACGUGCGCGUGAAAGAGAGAAGUGAACCAGAGAAACACACGUUGUGGUACCUUACCUGGUA [U60C A61C] | 0.264 |
| GUCAUCUUUCACGUGCGCGUGAAAGAGAGAAGUGAACCAGAGAAACACACGUUGUGGUAUAAUACCUGGUA [C4A U62A] | 0.167 |
| GUCCUCUUUCACGUGCGCGUGAGAGAGAGAAGUGAACCAGAGAUACACACGUUGUGGUAUAUUACCUGGUA [A23G A44U] | 0.0965 |
| GUCCUCUUUCACGUGCGCGUGAAAGAGAGAAGUCAACCAGAGAAACACACGUUGUGGUAUAUUACCUCGUA [G34C G68C] | 0.484 |
| GUCCUCUUUCACGUGCGCGUGAAAGAGACAAGUGAACCAGAGAAUCACACGUUGUGGUAUAUUACCUGGUA [G29C A45U] | 0.122 |
| AUCCUCUAUCACGUGCGCGUGAAAGAGAGAAGUGAACCAGAGAAACACACGUUGUGGUAUAUUACCUGGUA [G1A U8A] | 0.232 |
| GUCCUCUUUCACGUGCGCGUGAAAGAGAGAAGUGACCCAGAGAAACACACGGUGUGGUAUAUUACCUGGUA [A36C U52G] | 0.558 |
| GUCCUCUUUCACGUGCGCGAGAAAGAGAGAAGUGAACCAGAGAAACCCACGUUGUGGUAUAUUACCUGGUA [U20A A47C] | 0.293 |
| GUCCUCUUUCACGUGCGCGUGAAAGAGAGACGUGAACCAGAGAAACACACGUUGUGGUAUAUAACCUGGUA [A31C U63A] | 0.162 |
| GUCCUCUUUCACGUGCGCGUGAAAGAGAGAAGUGAACCGGAUAAACACACGUUGUGGUAUAUUACCUGGUA [A39G G42U] | 0.107 |
| GUCCUCUUUGUCGUGCGCGUGAAAGAGAGAAGUGAACCAGAGAAACACACGUUGUGGUAUAUUACCUGGUA [C10G A11U] | 0.358 |
| GCCCUCUUUCACGUGCGCGUGAAAGAGAGAAGUGAACCAGAGAAACACACGUUGUGGUUUAUUACCUGGUA [U2C A59U] | 0.108 |
| GUCCUCUUUCACGUGCGCGAGAAAGAGAGAAGUGAACCCGAGAAACACACGUUGUGGUAUAUUACCUGGUA [U20A A39C] | 0.403 |
| GUCCUCUUUCACGUGCGCGUGAAAGAGAGAAGUGAACCAGAGCAACACACGUUGUUGUAUAUUACCUGGUA [A43C G56U] | 0.141 |
| GUCCUCUUUCAUGUGCGCGUGAAAGAGAGAAGUGAACCAGAGAAACACACGUUGUGGUAUUUUACCUGGUA [C12U A61U] | 0.133 |
| GUCCUCUUCCACGUGCGCGUGAAAGAGAGAAGUGAACCAGAGAAGCACACGUUGUGGUAUAUUACCUGGUA [U9C A45G] | 0.0278 |
| GUCCUCUUUCACGUGCGCGUGAAACAGAGAAGUGAACCAGAGAAACACACGUUGUGGUAAAUUACCUGGUA [G25C U60A] | 0.392 |
| GUCCUCUUUCACGUGCGCGUGAAAGAGAGAAGUGAACCAGAGAAACUCACGUUGUGGUAUAUUACCUGAUA [A47U G69A] | 0.107 |

| Variant | self-cleavage |
| --- | --- |
| GUCCUCUUUCACGUGCGCGUGAAAGAGAGAAGUGAACCAGAGAAACAUACGUUGUGGUAUAUUAGCUGGUA [C48U C65G] | 0.0909 |
| GUCCUCUUUCACGUGCGCGUGAAAGAGAGAAGUGAACCAGAGAAACACACGUUGUGAUCUAUUACCUGGUA [G57A A59C] | 0.142 |
| AUCCUCUUUCACGUGCGCGUGAAAGAGAGAAGUGAACCAGAGAAACACACGUUGUGGUAGAUUACCUGGUA [G1A U60G] | 0.194 |
| GUCCUCUUUCACGUGCGCGUGAAAGAGAGAAGUGAACCACAGAAACACACGUUGUGGUAUAUUACCUGCUA [G40C G69C] | 0.169 |
| GUCCUCUUUCACGUGCGCGUGAAAGAGAGAAGUGAACCCGAGAAACACACGUUGUGGUAUAGUACCUGGUA [A39C U62G] | 0.108 |
| GUCCUCUUUCACGUGCGCGUGAAAGAGAGAAGUGAACCAUAGAAACACACGUUGUGGUAUAUUAACUGGUA [G40U C65A] | 0.158 |
| GUCCUCUUUCACUUGCGCGUGAAAGAGAGAAGUGAACCAGAGAAACACACGUUGUGGCAUAUUACCUGGUA [G13U U58C] | 0.919 |
| GUCCUCUUUCACGUGCGCGUGAAAGAGAGAAGGGAACCAGAGAAACACACGUUGUGGUAUAUUACCUAGUA [U33G G68A] | 0.151 |
| GUCCUCUUUCACGUGCGCGUGAAAGAGAGAAGUGAACCAGAGAAACACACGUUGUGAUAAAUUACCUGGUA [G57A U60A] | 0.152 |
| GUCCUCUUUCACGUGCGCGUGCAAGAGAGAAGUGAACCAGAGAAACACACGUCGUGGUAUAUUACCUGGUA [A22C U53C] | 1.03 |
| GUCCUCUUUCACGUGCGCUUGAAAGAGAGAAGUGAACCUGAGAAACACACGUUGUGGUAUAUUACCUGGUA [G19U A39U] | 0.324 |
| GUCCUCUUUCACGUGCGCGUGAAAGAGAGAAGCGAAACAGAGAAACACACGUUGUGGUAUAUUACCUGGUA [U33C C37A] | 0.182 |
| GUCCUCUUUCAGGUGCGCGUGAAAGAGAGAAGUGAACCAGGGAAACACACGUUGUGGUAUAUUACCUGGUA [C12G A41G] | 0.573 |
| GUCUUCUUUCACGUGCGCGUGAAAGAGAGAAGUGAACCAGAGAAAGACACGUUGUGGUAUAUUACCUGGUA [C4U C46G] | 0.121 |
| GUCCUCUUUCACGUGCGCGUGAAAGAGCGAAGUGAACGAGAGAAACACACGUUGUGGUAUAUUACCUGGUA [A28C C38G] | 0.194 |
| GUCCUCUUUCACGUGCGCGUGAAAGAGAGAAGGGAACCAGAGAAACACAGGUUGUGGUAUAUUACCUGGUA [U33G C50G] | 0.12 |
| GUCCUCUUUCACGUGCGCGUGAAAUAGAGAAGUGAACCAGAGAACCACACGUUGUGGUAUAUUACCUGGUA [G25U A45C] | 0.219 |
| GUCCUCUUUCACGUACGCGUGAAAGAGAGAAGUGAACCAGAGACACACACGUUGUGGUAUAUUACCUGGUA [G15A A44C] | 0.143 |
| GUCCUCUUUCACGUGCGCGUGAAAGAGAGAAGUGAACCAGUGAAACACACGUUGUGGUAUACUACCUGGUA [A41U U62C] | 0.711 |
